The target in assay [1] is human GABAA receptor α1 subunit (HEK293T cells stably expressing α1β2γ2) (human). Nature of the assay: co-IP; HEK293T cells stably expressing α1β2γ2 GABAA receptors, treated with non-targeting siRNA or siRNAs against both EMC3 and EMC6 for 48 h; lysate incubated with anti-α1 antibody; blot for SEC61α and α1.
In assay [2] the target is FLAG-tagged EMC6 D27A (human) (human) (UniProt Q9BV81). Nature of the assay: co-IP; HEK293T cells stably expressing α1β2γ2 GABAA receptors, transiently transfected with FLAG-tagged EMC3 variants, or with FLAG-tagged EMC5 and EMC6 variants; lysate (50 mM Tris pH 7.5, 150 mM NaCl, 2 mM DDM) on anti-FLAG M2 magnetic beads overnight at 4°C; blot for α1 and FLAG; band intensity of α1 over FLAG.

For assay [3], the target named is FLAG-tagged EMC6 N22A (human) (human) (UniProt Q9BV81). The description is as above.
The target in assay [4] is FLAG-tagged EMC3 R31A (human) (human) (UniProt Q9P0I2). The description is as above.
Assay [5] has as its target FLAG-tagged EMC3 R180A (human) (human) (UniProt Q9P0I2). Described as above.

For the substance “SEC61α (endogenous, HEK293T) (from UniProt P61619 1-476) (natural protein)”, the normalized SEC61α over α1 intensity after IP, knock-down of both EMC3 and EMC6 against non-targeting siRNA in assay [1] is 5.3 fold.
With “human GABAA receptor α1 subunit (HEK293T cells stably expressing α1β2γ2) (natural protein)”, the α1 band intensity over FLAG-tagged EMC6 after IP, relative to WT EMC6 (relative to WT EMC6) in assay [2] turned out to be 0.72; in assay [3] it was 0.55. The figures for the normalized α1 intensity over FLAG after IP, relative to WT EMC3 (relative to WT EMC3) in assay [4] and in assay [5] were 0.48 and 0.4, respectively.
